Results as given in the DeepSol protein solubility set.

Experiment: soluble on expression in E. coli; label from the status in PepcDB or PDB records

Sequence | soluble on expression in E. coli
DNMFCNKEYCNRLKDENNCISNLQVEDQGNCDTSWIFASKYHLETIRCMKGYEPTKISALYVANCYKGEHKDRCDEGSSPMEFLQIIEDYGFLPAESNYPYNYVKVGEQCPKVEDHWMNLWDNGKILHNKNEPNSLDGKGYTAYESERFHDNMDAFVKIIKTEVMNKGSVIAYIKAENVMGYEFSGKKVKNLCGDDTADHAVNIVGYGNYVNSEGEKKSYWIVRNSWGPYWGDEGYFKVDMYGPTHCHFNFIHSVVIFNVDLPMN | soluble
GSKCKCSRKGPKIRYSDVKKLEMKPKYPHCEEKMVIITTKSVSRYRGQEHCLHPKLQSTKRFIKWYNAWNEKRRVYEE | soluble
MAHHHHHHMAAGSAEEAVALMKSAEKHSQKKFFKRPDWDAAASEYERAARIYTHLEDTNRATDAWRKASGAHQNAENNFFAARAMESLAVFLTEQSRKGMADDTSLLNNAVESYCDASKLYAFNEMFDRQADCLKKAAEIINPTKTIVTGLPATEAGSSQVKQRMQQVVGLFREGVSVLEEHIEDKPVVAVQLSELYRNWMLTHLHNGDVKGAVEVLEEQLGIRADPHKKGVFERLAQPHNSAKAGLEITVLCLSCGDDVWARQEMNKLRGVPGFSTSNEEATANALISSFEERDEEQLRAAMKNQTLQFITIDISRMSRKLKIQFSAPQRTNMTSSSLPNPSLPNEQQQGEEQQEADIDPEEDIR | not soluble
MAHHHHHHMCLLSFFSLYPLGSFSSGKSNMDTPPISDDDKEVIDRLFASDVPQSLSRHAVLILHYHRTVFGSMVPSNVLLAGCLLYSCKWLSYPSGNSFLKNYFQGMKTSDIVGLEMVLHGTVRQNFMLVEACLRSEMSEIVRLNDVPHNRERIVLVCLNLVRALYRTRWCLLPETAARGALLVACEMCDVHLKSLPESFNTTMVTCAVDYLRSIFAQSRC | not soluble
MGSDKIHHHHHHLPSARLSPRLSSPAGCRQTEWSQMPEAFIELRAITKRFSGVCALDALSLTINKGEIHCLAGENGSGKSTVIKVMAGVYQPDGGEILINGAPVRALTPIEAVRRNIQVIYQDFSLFGNLTVAENLALCGELQQKRKLADWKRIRAIGRQALDRLGVDIDLEVDVERLPTSSRQIVAIARALMSDAKLLIMDEPTTALTGREVDALFRIVKDIQAQGIAVLFVSHKMREMLEISERLTVIRNGRTVIDGPTSAFDESAVTRHMTGLDILSEGYAWAGSPEAVPRLEVRGLSLPGAFEDLSLAIRPGEIVGLSGLLGSGRTEFALSLFGMMPPAAGQVLVDGAQIAPRSVQDAIAEGITYVPEDRLTEGLFLTQSIDRNILATSYERLAPRGVIDRAKAAMQSAGMIKAMQIATPTGEKPVGQLSGGNAQRVVLARWLLTDAKVLILNGPTVGVDVGSKAEIHRKIRELASAHGLAVLMISDDVLELVQNTNRIVLMHRGRFVDDLPTATVSEQSINDLLKSFT | not soluble
MRIRLFAFCLLLGGCQSQLPPLPDWQSPEGRDDPQTGRIVELRSGVTLSPQQLVARLAAAPRVIVGEKHDNPDHHAVELWLAQALGEYRAQGSLLLEMLDPGQQPRVDAVRAQLGNGKPVANLEEALDWQKGWDWTQYGPLVSWAVAQPAPLLAANLQRSEIMRIYRERPPLPGTASRRDSVRLPLLAQIRESHCGMLPDDQLPAMLAVQQQRDRRMAERLRDAPRPAMLVAGSFHARRDLGVPVHLRDLGAEKGTQVLMLVEAGQAVTTREADYAWYTPAQPDKDYCAEMKKARLEHHHHHH | not soluble
MGSYIQMSGIGSRLRQERERLGLSQKVFGEIGGVEANAQGKYESGDRAPKADYLSRVAAKGVDVLYVLTGSRIPIQSGGLSQTEEKVLDCYRALFKEDQDAICRLTSTLAELSASQGERRKAQVRE | soluble
AAISLDEQWRMIKENQLMMIAHGIASPRLPEASNLWLISLKLWSCESEIIDEQTFRRSFSDPALSHALDQRVCHDFFQQAAKAVASKGLSIALPLSVAGLSSATLVNELLEQLENSPLPARLLHLIIPAEAIFDHAESVQKLRLAGCRIVFSQVGRDLQIFNSLKANMADYLLLDGELCANVQGNLMDEMLITIIQGHAQRLGMKTIAGPVVLPLVMDTLSGIGVDLIYGDVIANAQPLDLLVNRSYFAIN | not soluble
MLEDPGGRPRVYVDVREERSPVPSILESLGVQVIPKQLPMGDYLVSDSIIVERKTSSDFAKSLFDGRLFEQASRLAEHYETVFIIVEGPPVPRRYRGRERSLYAAMAALQLDYGIRLMNTMDPKGTALVIESLARLSTREGGQRIVIHKKPRLSDVREWQLYILQSFPGIGRRTAERILERFGSLERFFTASKAEISKVEGIGEKRAEEIKKILMTPYK | soluble
MGSDKIHHHHHHMSEITTLQPSLLWKWFDQICAIPHPSHYEDTLANFIVNWAKEKHFFVERDEVGNVLIRKPATKGMENHTPVVLQAHLDMVPQANEGNPHDFTKDPIQPYIDGEWVKARGTTLGSDNGIGLASTLAVLESNDLAHPPLEVLLTMTEETGMDGAKGLRHNWLQSEILINTDTEEIGEIYIGCAGGINANFEIPVQYETNTFEHSAQITLKGLRGGHSGGDIHTGRANAIKVLARVLAKLSQNQPHFALSEIRGGSIRNAIPREAAAVLAFNGDVKTIESAVENLAVVLKEELAIAEPNFTLFVESAEKAPTVFTAQSTQTVINALNVLPNGVIRNSDVVKNVVESSLSVGVLKTEGNVVKSTILVRSLIESGKYYVTEMLSSLAILANAKVEFSAPYPGWQPVNDSTILDVTRKHYAEVLGEQPVVKVIHAGLECGLLKEHYPNIEMISVGPTIRNAHSPDEKVEIATVQTYWDLLTRVLADIPAK | not soluble
MLGGSLYQVYAIKEAVKMGYYVITCDYLPNNPGHQYAHEYYNVSTTDKEAVYELAKRLQVDGVVAYASDPAAPTAAYVCEKLGLPTSPYTSVEILSQKDLFRRYLAEHNFNVPKYVGCSSYTEALEQIKNLTLPVMIKPVDSSGSKGINKLTNVDQLKDFIEDALSYSREKRIIIEEFIEKDGYQISGDAFSVDGILKFHCFGNEYYSSSVVKDFAPLGECWPFQMKPEIITELEKDIQRLISELKMGTTAYNVEAILGKNGKLYILELGARSGGSLIPQITELATGVNMVKYVIKAALGEDCSEIEMSPARGYWSNYMLHSKQTGRFKEISFDENFAKNNLVDCVTELKSGDNVHAFRDAGDALGTLILKYSSKEEMFNVIENMDQFVHIIID | not soluble
LAMEVGSDSITLTSANTSADAKSVQLFEDFSCSHCSELSLATDADMKTQIEDGNLVVEIKPLNFLDRENIDGHSTHALAAALAVADSNDATLYWNFRAFLMEDQSEIYNQWSDDDFADGVEALGADSSVVDAIRNGDNIQRAYDLATANGEELTEETGSL | not soluble
MKMPEHTDTPKEKILVYIRAEKQKTLHRRQVCINDIASVYCKYSRYEGQIKGIIVDKIRGKKSVISVMKIIEQITEIYDDAQVISIGEPEVLVEYDDNSKNKILEA | soluble
RNAAHQLYYRPTPDDGYLLAGYPWFDVRARDLFVALPGCTLCVEAPERFERIVNTVIPAMERYMRLHEDDDTIHGLHEPDVGIWAIWAIQQYARRNGLEAAKRFGSFVSEVVSYYLSAQHPTAQIRENGLLYVLGTGFPLSWMDAKLNGKAVIPREGYLVELNALWYNALCFERELNGEKPEIGEIISRIERSFPDTFLNCYNYLFDYVQDGKAQDWSVRPNMLFAISLPYSPLQRDRQLQVLEIITRELLTPKGLRSLSPKSEGYRPYCRGKQEERELAYYNGSVWPWLLGQYTEAYLRLYGNSGVTFLERMLIGMEEELQMHGIGTISELFDGNPPFMGRGAISFAMSVGEILRAKELLNRTESDMHLSVRHMYNYTKWKG | not soluble
TEVELAYLVSESQLIGITGSNGKTTTTTMIAEVLNAGGQRGLLAGNIGFPASEVVQAANDKDTLVMELSSFQLMGVKEFRPHIAVITNLMPTHLDYHGSFEDYVAAKWNIQNQMSSSDFLVLNFNQGISKELAKTTKATIVPFSTTEKVDGAYVQDKQLFYKGENIMSVDDIGVPGSHNVENALATIAVAKLAGISNQVIRETLSNFGG | not soluble
GPGSMRYFVVAHEFQAEEDVELSVFKGEILCATEGVAQDGWIKVEATTDARRRGFVPMSYLREISAAEASTSMSAPASSAPPLTGESTSPMRTPQRAGGESSARAALANTTVSTSLDLGNCSGVVAKGFSPSLQPMRSPETTAVHAAPASSSIHLTPAQQAAGPVSRHLLENPNAVVDAFMKNEVYFNQLMQRRASALAQMQSGLEEAMTEVAACKDRSAVLTRKLHDLDGVVERERQRWMDRVEEEKVHVSRSIPYSAPLAVPVSSGTTPLRSPIIGPHSGVGRSVLDDDSPRQLRA | soluble
MEDEIRKAAEILAKSKHAVVFTGAGISAESGIPTFRGEDGLWRKYDPEEVASISGFKRNPRAFWEFSMEMKDKLFAEPNPAHYAIAELERMGIVKAVITQNIDMLHQRAGSRRVLELHGSMDKLDCLDCHETYDWSEFVEDFNKGEIPRCRKCGSYYVKPRVVLFGEPLPQRTLFEAIEEAKHCDAFMVVGSSLVVYPAAELPYIAKKAGAKMIIVNAEPTMADPIFDVKIIGKAGEVLPKIVEEVKRLRSEK | soluble
MGSDKIHHHHHHMDKFLYVAMSGAKQNMSALAVRANNLANANTDGFKSDLTQARSMQAFGEGLPSRVFAMTEIATSDFKAGALKTTGRDLDIAVKGDGWIAVQAPDGSEAYTRSGGLKFDNTGLLLNSRNNPVMGNSGPIVLPLPIDKLQISPDGIISIRPQGATAEVIEEVARIKLVNPDNSQMMRGEDGLFRLTSGDVAAKDPSVQVESGAIEASNVNPVEEMVALISIQRQYEMQVKMMKTAEETDQASSSLMRIG | not soluble
MGSDKIHHHHHHDDNEIEIPKAPVLEKAQLALAIKSEEGAVTKTGETTPTDADVNTLTVGVFGVDGWSVIYTKDATPNSDGTKDVGPQEVYAGEAHVVVVANAAPVIQTELAKAKDITDFIETTINLSDETLTKGLTMSSKVLDVTLVANTTNYIGYDDEVGDITVKDISGKEVYGAGPVPLVRDVASIALAGADIGNPENANYESKSFVLKEVFIASAKGVSSVASTEEWGTIEKDFFGDTHFGYLDYKVGLLFLTSPNNIDEGSYKKGLQTKYDALAKKHVENDPALNHEFYVYENTKGEVKSGESNVNEAYANHTLLIVKGDYTYLPQGAKESITKENCYYAIPVGEEVTIDGTEKRSKFYVQRNYKYEISLTIIGPGSEIPYDPMISTNVSASVKVEPWNVKTIHEEVE | not soluble
MSLRLRKDVLNYESRQKSDLLIPNSNSISIYNQIADKYSRKITREEIFSGIYFLRYFLLRNAKGDVLEVGSGPGTNFPFYKWKKINTLTLVEPAEKMREIADARAKKKVPPNVLYRQFADLRQLPPNQSYDTIIQTFCICSQEKAVEQLNNYRSLLRSDGRILLIEHGKGKYKFLNRILNAYAESHYESWGCVWNRDIEQLLEDSELTIDSCKRFNFGTTYVIEAHEGHHHHHH | not soluble
